Experiment [1] concerns the target human HVEM (wild type) expressed on cells (human) (UniProt Q92956). In words: flow cytometry saturation binding on 293T cells transfected with wild type HVEM. (In flow cytometry, cells or beads pass a laser one at a time.)
In experiment [2] the target is human HVEM mutant R113A expressed on cells (human) (UniProt Q92956). In words: flow cytometry saturation binding on 293T cells transfected with mutant HVEM.
Experiment [3] has as its target human HVEM mutant R62A expressed on cells (human) (UniProt Q92956). The experiment is described as above.
For experiment [4], the target named is human HVEM mutant Y61F expressed on cells (human) (UniProt Q92956). The experiment is described as above.
Sequence of human HVEM mutant Y61F expressed on cells (human) (Q92956 39-283 Y61F): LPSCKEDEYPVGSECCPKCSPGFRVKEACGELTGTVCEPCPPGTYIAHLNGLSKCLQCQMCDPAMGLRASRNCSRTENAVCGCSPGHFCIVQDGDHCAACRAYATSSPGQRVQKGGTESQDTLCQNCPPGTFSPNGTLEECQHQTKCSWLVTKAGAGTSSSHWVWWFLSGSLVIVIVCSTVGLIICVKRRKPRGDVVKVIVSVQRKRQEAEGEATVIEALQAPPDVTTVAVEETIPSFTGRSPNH
For experiment [5], the target named is human HVEM mutant S58A expressed on cells (human) (UniProt Q92956). Described as above.
Sequence of human HVEM mutant S58A expressed on cells (human) (Q92956 39-283 S58A): as the sequence (Q92956 39-283 Y61F) above, with S20A, F23Y counted along it
Experiment [6] deals with human HVEM mutant K64A expressed on cells (human) (UniProt Q92956). Described as above.
Sequence of human HVEM mutant K64A expressed on cells (human) (Q92956 39-283 K64A): as the sequence (Q92956 39-283 Y61F) above, with F23Y, K26A counted along it
Experiment [7] has as its target human HVEM mutant E76A expressed on cells (human) (UniProt Q92956). The experiment is described as above.
Experiment [8] addresses human HVEM mutant Y47F expressed on cells (human) (UniProt Q92956). The description is as above.
Experiment [9] has as its target human HVEM mutant E65A expressed on cells (human) (UniProt Q92956). The description is as above.

Sequence of human HVEM mutant Y47F expressed on cells (human) (Q92956 39-283 Y47F): as the sequence (Q92956 39-283 Y61F) above, with Y9F, F23Y counted along it
Sequence of human HVEM mutant R113A expressed on cells (human) (Q92956 39-283 R113A): as the sequence (Q92956 39-283 Y61F) above, with F23Y, R75A counted along it
Sequence of human HVEM (wild type) expressed on cells (human) (Q92956 39-283): as the sequence (Q92956 39-283 Y61F) above, with F23Y counted along it
Sequence of human HVEM mutant E76A expressed on cells (human) (Q92956 39-283 E76A): as the sequence (Q92956 39-283 Y61F) above, with F23Y, E38A counted along it
Sequence of human HVEM mutant R62A expressed on cells (human) (Q92956 39-283 R62A): as the sequence (Q92956 39-283 Y61F) above, with F23Y, R24A counted along it
Sequence of human HVEM mutant E65A expressed on cells (human) (Q92956 39-283 E65A): as the sequence (Q92956 39-283 Y61F) above, with F23Y, E27A counted along it

B1: recombinant soluble human LIGHT truncated at G66 (ligand, from a related filing)
chain: GEMVTRLPDGPAGSWEQLIQERRSHEVNPAAHLTGANSSLTGSGGPLLWETQLGLAFLRGLSYHDGALVVTKAGYYYIYSKVQLGGVGCPLGLASTITHGLYKRTPRYPEELELLVSQQSPCGRATSSSRVWWDSSFLGGVVHLEAGEEVVVRVLDERLVRLRDGTRSYFGAFMV
As a reminder, the Kd is the equilibrium constant for the complex coming apart. High values mean lower affinity, low ones higher affinity. In the case of B1, the Kd is 13 nM in [1]; 18 nM in experiment [2]; 17 nM in experiment [3]; 17 nM in [4]; 19 nM in experiment [5]; 14 nM in experiment [6]. Besides, the Kd in experiment [7] is 22 nM; in [8], 14 nM; in experiment [9], 18 nM.

The values above are taken from US8349320.
